Experiments:
Experiment in all cases: competition ELISA, antibody preincubated with target, AMH-coated plate
[1] = biological target: T1, AMH truncated antigen 171-270aa (human)
T1 peptide: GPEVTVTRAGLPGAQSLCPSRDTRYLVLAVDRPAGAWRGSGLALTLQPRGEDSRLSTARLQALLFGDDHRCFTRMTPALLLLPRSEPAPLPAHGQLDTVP

[2] = biological target: T2, AMH truncated antigen 461-560aa (human)
T2 peptide: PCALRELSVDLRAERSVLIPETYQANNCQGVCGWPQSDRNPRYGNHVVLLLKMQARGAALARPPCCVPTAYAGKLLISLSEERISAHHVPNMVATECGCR

[3] = biological target: T3, AMH truncated antigen 341-440aa (human)
T3 peptide: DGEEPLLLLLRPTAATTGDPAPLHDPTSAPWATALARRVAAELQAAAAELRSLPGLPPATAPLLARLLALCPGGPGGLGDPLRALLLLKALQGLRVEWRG

[4] = biological target: T4, AMH truncated antigen 426-525aa (human)
T4 peptide: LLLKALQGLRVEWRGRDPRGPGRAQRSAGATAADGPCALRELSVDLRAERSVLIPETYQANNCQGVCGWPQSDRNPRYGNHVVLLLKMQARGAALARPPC

[5] = biological target: T5, AMH truncated antigen 26-85 aa (human)
T5 peptide: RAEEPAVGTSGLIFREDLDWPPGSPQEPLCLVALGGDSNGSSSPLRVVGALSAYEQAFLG

[6] = biological target: T6, AMH truncated antigen 86-185aa (human)
T6 peptide: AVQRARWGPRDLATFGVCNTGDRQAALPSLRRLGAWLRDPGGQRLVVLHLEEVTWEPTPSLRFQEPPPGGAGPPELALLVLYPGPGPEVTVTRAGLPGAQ

[7] = biological target: T7, AMH truncated antigen 256-355aa (human)
T7 peptide: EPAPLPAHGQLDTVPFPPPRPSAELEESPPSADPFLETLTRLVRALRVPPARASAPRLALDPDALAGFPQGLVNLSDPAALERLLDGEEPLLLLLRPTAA

[8] = biological target: T8, recombinant human AMH (anti-Mullerian Hormone) (human, UniProt P03971 25-560)
T8 construct: range 1-560; also called AMH antigen; AMH (1-560)
T8 sequence (looked up): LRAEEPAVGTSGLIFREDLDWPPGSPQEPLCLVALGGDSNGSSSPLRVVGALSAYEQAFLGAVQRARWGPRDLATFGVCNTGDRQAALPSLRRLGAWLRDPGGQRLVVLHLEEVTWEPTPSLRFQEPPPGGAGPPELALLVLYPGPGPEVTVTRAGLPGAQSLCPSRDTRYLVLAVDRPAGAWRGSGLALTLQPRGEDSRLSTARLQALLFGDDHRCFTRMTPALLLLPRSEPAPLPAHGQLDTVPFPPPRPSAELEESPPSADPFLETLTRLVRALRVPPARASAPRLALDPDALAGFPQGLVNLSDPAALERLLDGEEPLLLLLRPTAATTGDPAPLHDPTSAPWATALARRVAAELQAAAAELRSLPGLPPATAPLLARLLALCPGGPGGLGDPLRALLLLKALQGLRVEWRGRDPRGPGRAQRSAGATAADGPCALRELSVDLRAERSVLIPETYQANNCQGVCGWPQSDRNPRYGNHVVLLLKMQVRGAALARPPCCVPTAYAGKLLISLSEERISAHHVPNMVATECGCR

percent inhibition [1]: 0%
percent inhibition [2]: 6%
percent inhibition [3]: 10%
percent inhibition [4]: 1%
percent inhibition [5]: 99%
percent inhibition [6]: 2%
percent inhibition [7]: 1%
percent inhibition [8]: 92%
B1: monoclonal antibody C9F2-2 (antibody, V domains shown)
VH: EVQLVESGGGLVKPGGSLKLSCAASGFAFSTYDMSWVRQTPEKRLEWVAYISPGGGATYYPDTVKGRFTISRDNAKNTLYLQMTSLKSEDTAMYYCAGRRDYYGMDYWGQGTSVTVSS
VL: DVVMTQTPLSLPVSLGDQASISCRSSQSLVHSNGNTYLHWYLQKPGQSPKLLIYKVSNRFSGVPDRFSGSGSGTDFTLKISRVEAEDLGVYFCSQSTHVPWTFGGGTKLEIK
notes: Mouse hybridoma antibody purified from ascites; the tie is indirect; also called hybridoma CCTCC NO: C2018183

Source: patent US20220146515A1 (XIAMEN INNODX BIOTECH, published 2022)
